Test results from patent publication US5532348 (United States of America, dated 1996).

Key:
[1] = molecular target: GST-p53 (glutathione S-transferase fusion of wild-type p53) (Homo sapiens (Human), UniProt P04637); test: GST-p53 pull-down of 35S-labelled E6-AP variant in the presence of HPV16 E6
[2] = molecular target: T1, HPV11 E6, wheat germ extract translated (human papillomavirus type 11, UniProt P04019); test: GST-E6-AP fusion on glutathione-Sepharose, 35S-labelled E6
T1 sequence: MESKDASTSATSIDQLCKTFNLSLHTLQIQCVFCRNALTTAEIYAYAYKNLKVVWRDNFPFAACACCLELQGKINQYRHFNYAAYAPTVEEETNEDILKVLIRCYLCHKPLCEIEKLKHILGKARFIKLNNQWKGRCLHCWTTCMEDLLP

GST fusion to HPV 11 E6 = molecular target: T2, GST fusion to HPV 11 E6 (human papillomavirus type 11, UniProt P04019); test: GST pull-down of 35S-labelled translate, no p53
T2 sequence: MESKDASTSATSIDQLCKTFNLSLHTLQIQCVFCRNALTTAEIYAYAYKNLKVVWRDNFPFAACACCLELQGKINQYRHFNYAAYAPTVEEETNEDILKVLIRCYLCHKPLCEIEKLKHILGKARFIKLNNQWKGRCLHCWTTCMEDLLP

GST (with no fusion) = GST (with no fusion) (Schistosoma japonicum (Blood fluke), UniProt P08515 = GST); test: GST pull-down of 35S-labelled translate, no p53

B1: E6-AP N-terminally truncated form beginning at amino acid 322 (other)
chain: YNADQIRRMMETFQQLITYKVISNEFNSRNLVNDDDAIVAASKCLKMVYYANVVGGEVDTNHNEEDDEEPIPESSELTLQELLGEERRNKKGLRVDPLETELGVKTLDCRKPLIPFEEFINEPLNEVLEMDKDYTFFKVETENKFSFMTCPFILNAVTKNLGLYYDNRIRMYSERRITVLTSLVQGQQLNPYLRLKVRRKHIIDDALVRLEMIAMENPADLKKQLYVEFEGEQGVDEGGVSKEFFQLVVEEIFNPDIGMFTYDESTKLFWFNPSSFETEGQFTLIGIVLGLAIYNNCILDVHGPMVVYRKLMGKKGTFRDLGDSHPVLYQSLKDLLEYVGNVEDDMMITFQISQTNLFQNPMMYDLKENGDKIPITNENRKEFVNLYSDYILNKSVEKQFKAFRRGRHMVTNESPLKYLFRPEEIELLICGSRNLDFQALEETTEYDGGYTRDSVLIREFWEIVHSFTDEQKRLFLQFTTGRDRAPVGGLGKLKMIIAKNGPDTERLPTSHTCFNVLLLPEYSSKEKLKERLLKAITYAKGFGM
Does B1 bind [1]?
Result: no binding

B2: GST-75 kDa E6-AP fusion protein (amino acids 212-865 of SEQ ID NO:1) (other)
chain: DNNLQKLGPDDVSVDIDAIRRVYTRLLSNEKIETAFLNALVYLSPNVECDLTYHNVYSRDPNYLNLFIIGMENRNLHSPEYLEMALPLFCKAMSKLPLAAQGKLIRLWSKYNADQIRRMMETFQQLITYKVISNEFNSRNLVNDDDAIVAASKCLKMVYYANVVGGEVDTNHNEEDDEEPIPESSELTLQELLGEERRNKKGLRVDPLETELGVKTLDCRKPLIPFEEFINEPLNEVLEMDKDYTFFKVETENKFSFMTCPFILNAVTKNLGLYYDNRIRMYSERRITVLTSLVQGQQLNPYLRLKVRRKHIIDDALVRLEMIAMENPADLKKQLYVEFEGEQGVDEGGVSKEFFQLVVEEIFNPDIGMFTYDESTKLFWFNPSSFETEGQFTLIGIVLGLAIYNNCILDVHGPMVVYRKLMGKKGTFRDLGDSHPVLYQSLKDLLEYVGNVEDDMMITFQISQTNLFQNPMMYDLKENGDKIPITNENRKEFVNLYSDYILNKSVEKQFKAFRRGRHMVTNESPLKYLFRPEEIELLICGSRNLDFQALEETTEYDGGYTRDSVLIREFWEIVHSFTDEQKRLFLQFTTGRDRAPVGGLGKLKMIIAKNGPDTERLPTSHTCFNVLLLPEYSSKEKLKERLLKAITYAKGFGM
Does B2 bind [2]?
Result: no binding

B3: 95 kd in vitro translated form of E6-AP (amino acids 37 to 865 of SEQ ID NO:1) (other)
chain: EACTNEFCASCPTFLRMDNKAAAIKALELYKINAKLCDPHPSKKGASSAYLENSKGAPNNSCSEIKMNKKGARIDFKDVTYLTEEKVYEILELCREREDYSPLIRVIGRVFSSAEALVQSFRKVKQHTKEELKSLQAKDEDKDEDEKEKAACSAAAMEEDSEEASSSRIGDSSQGDNNLQKLGPDDVSVDIDAIRRVYTRLLSNEKIETAFLNALVYLSPNVECDLTYHNVYSRDPNYLNLFIIGMENRNLHSPEYLEMALPLFCKAMSKLPLAAQGKLIRLWSKYNADQIRRMMETFQQLITYKVISNEFNSRNLVNDDDAIVAASKCLKMVYYANVVGGEVDTNHNEEDDEEPIPESSELTLQELLGEERRNKKGLRVDPLETELGVKTLDCRKPLIPFEEFINEPLNEVLEMDKDYTFFKVETENKFSFMTCPFILNAVTKNLGLYYDNRIRMYSERRITVLTSLVQGQQLNPYLRLKVRRKHIIDDALVRLEMIAMENPADLKKQLYVEFEGEQGVDEGGVSKEFFQLVVEEIFNPDIGMFTYDESTKLFWFNPSSFETEGQFTLIGIVLGLAIYNNCILDVHGPMVVYRKLMGKKGTFRDLGDSHPVLYQSLKDLLEYVGNVEDDMMITFQISQTNLFQNPMMYDLKENGDKIPITNENRKEFVNLYSDYILNKSVEKQFKAFRRGRHMVTNESPLKYLFRPEEIELLICGSRNLDFQALEETTEYDGGYTRDSVLIREFWEIVHSFTDEQKRLFLQFTTGRDRAPVGGLGKLKMIIAKNGPDTERLPTSHTCFNVLLLPEYSSKEKLKERLLKAITYAKGFGM
Does B3 bind (GST fusion to HPV 11 E6)?
Result: no binding

Does B3 bind (GST (with no fusion))?
Result: no binding

B4: GST-E6-AP fusion protein with amino acids 371 to 440 of SEQ ID NO:1 (SEQ ID NO:2) (other)
chain: ANVVGGEVDTNHNEEDDEEPIPESSELTLQELLGEERRNKKGLRVDPLETELGVKTLDCRKPLIPFEEFI
Does B4 bind [2]?
Result: no binding
